Test results published in patent US9549967B2, “Regulation of sodium channels by PLUNC proteins” (The University of North Carolina at Chapel Hill, priority 2009, dated 2017).

Tests used:
ENaC = target: T1, ENaC (Homo sapiens, UniProt P37088+P51168+P51170); assay: Transepithelial electrical resistance of human bronchial epithelial cultures (EVOM); format: cell-based; details: washed cultures; 50 ng/ml SPLUNC1 for 30 min or amiloride; effects not additive
T1 construct: endogenous in cells; host or cells: primary human bronchial epithelial cultures
T1 sequence (P37088 1-669): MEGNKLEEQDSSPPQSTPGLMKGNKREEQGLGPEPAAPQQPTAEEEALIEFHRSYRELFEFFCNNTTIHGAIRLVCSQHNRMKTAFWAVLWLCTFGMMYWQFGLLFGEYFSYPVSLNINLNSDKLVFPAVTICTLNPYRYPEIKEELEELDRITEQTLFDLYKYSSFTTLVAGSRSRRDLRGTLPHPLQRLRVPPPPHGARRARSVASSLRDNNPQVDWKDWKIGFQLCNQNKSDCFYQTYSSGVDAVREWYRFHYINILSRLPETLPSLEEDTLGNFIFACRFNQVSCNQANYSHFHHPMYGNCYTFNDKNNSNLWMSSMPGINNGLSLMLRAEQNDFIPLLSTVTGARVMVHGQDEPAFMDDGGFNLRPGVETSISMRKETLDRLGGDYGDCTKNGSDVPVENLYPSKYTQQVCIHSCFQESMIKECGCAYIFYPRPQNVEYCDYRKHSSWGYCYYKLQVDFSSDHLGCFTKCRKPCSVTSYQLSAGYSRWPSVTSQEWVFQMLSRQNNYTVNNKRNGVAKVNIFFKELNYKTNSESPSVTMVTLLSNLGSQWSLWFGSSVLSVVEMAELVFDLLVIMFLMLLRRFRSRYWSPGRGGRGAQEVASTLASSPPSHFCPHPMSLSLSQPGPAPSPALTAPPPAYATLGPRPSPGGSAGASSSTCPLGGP
T1 sequence (P51168 1-640): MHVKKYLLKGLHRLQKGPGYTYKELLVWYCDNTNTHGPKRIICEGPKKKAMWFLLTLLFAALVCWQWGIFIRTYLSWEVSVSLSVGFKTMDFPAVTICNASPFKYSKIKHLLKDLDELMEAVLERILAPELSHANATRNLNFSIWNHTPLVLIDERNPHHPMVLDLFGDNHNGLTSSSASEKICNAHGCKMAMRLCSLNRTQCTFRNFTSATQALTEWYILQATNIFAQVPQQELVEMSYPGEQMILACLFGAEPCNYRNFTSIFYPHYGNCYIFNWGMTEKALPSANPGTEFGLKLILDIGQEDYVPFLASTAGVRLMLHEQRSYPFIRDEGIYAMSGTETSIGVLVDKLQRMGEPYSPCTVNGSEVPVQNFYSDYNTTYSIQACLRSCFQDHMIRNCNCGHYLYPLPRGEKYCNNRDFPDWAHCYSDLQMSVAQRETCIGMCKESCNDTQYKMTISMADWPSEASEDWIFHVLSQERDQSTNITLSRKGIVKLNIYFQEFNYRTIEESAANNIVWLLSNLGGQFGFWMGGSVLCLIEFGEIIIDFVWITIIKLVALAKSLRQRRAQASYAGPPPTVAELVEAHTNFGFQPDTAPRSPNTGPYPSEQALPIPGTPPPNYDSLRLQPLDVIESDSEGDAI
T1 sequence (P51170 1-649): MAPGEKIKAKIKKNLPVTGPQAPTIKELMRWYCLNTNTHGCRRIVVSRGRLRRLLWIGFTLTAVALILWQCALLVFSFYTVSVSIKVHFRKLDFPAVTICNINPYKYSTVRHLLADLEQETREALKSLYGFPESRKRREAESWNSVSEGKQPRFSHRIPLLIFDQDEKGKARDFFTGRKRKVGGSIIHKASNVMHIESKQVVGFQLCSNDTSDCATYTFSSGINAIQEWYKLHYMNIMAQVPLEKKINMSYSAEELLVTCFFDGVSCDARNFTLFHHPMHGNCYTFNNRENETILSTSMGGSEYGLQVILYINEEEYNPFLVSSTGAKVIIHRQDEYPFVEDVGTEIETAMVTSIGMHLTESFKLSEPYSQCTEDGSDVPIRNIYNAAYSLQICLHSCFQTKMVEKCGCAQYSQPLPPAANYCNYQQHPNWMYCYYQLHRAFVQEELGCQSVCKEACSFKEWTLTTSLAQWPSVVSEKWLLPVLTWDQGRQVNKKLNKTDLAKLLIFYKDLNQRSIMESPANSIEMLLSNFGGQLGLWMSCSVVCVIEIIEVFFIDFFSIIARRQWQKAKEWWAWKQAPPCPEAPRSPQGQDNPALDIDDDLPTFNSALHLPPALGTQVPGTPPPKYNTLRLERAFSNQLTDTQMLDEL
From the text: Tissue procurement and cell culture: Cells were harvested by enzymatic digestion from human bronchial tissue as previously described under a protocol approved by the UNC School of Medicine IRB (Tarran et al., J. Gen. Physiol. 127:591 (2006)). Human excess donor lungs and excised recipient lungs were obtained at the time of lung transplantation from portions of main stem or […] bronchi and cells were harvested by enzymatic digestion. All preparations were maintained at an air-liquid interface in a modified bronchial epithelial medium and used 2-5 weeks after seeding on 12 mm T-Clear inserts (Corning Costar) coated with human placental type VI collagen (Sigma). Phosphate buffered saline (PBS) was used for washing human bronchial epithelial culture mucosal surfaces.
Microelectrode studies. A single-barreled potential difference-sensing electrode was placed in the airway surface liquid by micromanipulator and used in conjunction with a macroelectrode in the serosal solution to measure transepithelial voltage using a voltmeter (World Precision Instruments). […] Transepithelial resistance was routinely measured using the EVOM system (WPI) as previously described (Tarran et al., J. Gen. Physiol. 127:591 (2006)).

trypsin = assay: Cell-free fluorogenic assay of BGAR-MCA cleavage by trypsin; format: biochemical; details: 50 ng/ml rSPLUNC1; 1.0 or 0.3 U/ml trypsin
Method: For cell-free assays, reactions were carried out in 50 μl Ringer in a 96 well plate format with 100 μM BGAR-MCA. To measure endogenous protease activity in human bronchial epithelial cultures, 30 μl Ringer with 100 μM BGAR-MCA were placed directly onto the mucosal surfaces of human bronchial epithelial cultures grown on 12 mm T-clear inserts and the cultures were assayed in 12 well plates.

B1: SPLUNC1: human SPLUNC1, 256 amino acid secreted PLUNC protein (SEQ ID NO:1); rSPLUNC1 = V5/6His-tagged protein purified from HEK293 media (protein, listed as Homo sapiens)
chain: MFQTGGLIVFYGLLAQTMAQFGGLPVPLDQTLPLNVNPALPLSPTGLAGSLTNALSNGLLSGGLLGILENLPLLDILKPGGGTSGGLLGGLLGKVTSVIPGLNNIIDIKVTDPQLLELGLVQSPDGHRLYVTIPLGIKLQVNTPLVGASLLRLAVKLDITAEILAVRDKQERIHLVLGDCTHSPGSLQISLLDGLGPLPIQGLLDSLTGILNKVLPELVQGNVCPLVNEVLRGLDITLVHDIVNMLIHGLQFVIKV
modifications: V5/6His tag
notes: rSPLUNC1 = V5/6His-tagged protein purified from HEK293 media
ENaC
  increase of the transepithelial electrical resistance: ~33%
trypsin
  effect on the ability of trypsin to cleave fluorogenic substrate BGAR-MCA: ~10%
